Biological target: GFP-TIpA fusion protein (Salmonella typhimurium) [GFP: P42212]
Assay: cell-based or functional assay

Substance “GFP-TIpA fusion protein (from UniProt P42212 1-238)” has a fluorescent intensity when excited at 395 nm, temperature raised from 10° C. to 55° C. of 30%.

— patent US20070295907A1
